According to article doi:10.1101/2024.11.03.621760 (bioRxiv, 2024):

Target: the molecule itself
Test: crystal structure; HALC3_919 alone, 2.1 Å, space group P 21 3, PDB 9C7Z

B1: HALC3_919 (designed binder)
chain: MSGSEELLEELRELLERLQELLELIEQGKITPEQLREAIALLIEVLQILYEALRELAEQLQRLREELG
notes: also called HALC3_919 trimerization domain; source: E. coli, purified (Ni-NTA, SNAC cleavage, SEC)
With B1 the “stoichiometry N” value was 3.
